One experiment concerns kidney plasma membranes. Briefly: [125I]rhBMP-9 binding to kidney plasma membranes. Further details: species or system rat. As to the method:
To determine potential target tissues for BMP-9, plasma membrane preparations from adult rat organs are screened for specific [^125 I]rhBMP-9 binding. Plasma membranes are prepared by the methods of Neville, J. Biophys Biochem Cytol 8:412-422 (1960) and Ray, Biochim Biophys Acta 196:1-9 (1970) with the following modifications: Fresh tissues from adult male Long-Evans rats are homogenized with 10 strokes of a teflon homogenizer. Plasma membranes are collected from discontinuous sucrose gradients at 37%/41% sucrose interface and the 41%/45% sucrose interface. Homogenization buffer and sucrose solutions are supplemented with 0.7 μg/ml leupeptin, 2 μg/ml aprotinin and 240 μg/ml pefabloc. Protein levels in plasma membrane preparations are determined by the bicinchoninic acid assay (Pierce, Rockford, Ill.) using immunoglobulin G as a standard.
BMP-9 binding is carried out by suspending plasma membranes at 30 μg/100μl in binding buffer (136.9 mM NaCl, 5.37 mM KCl, 1.26 mM CaCl2, 0.64 mM MgSO4, 0.34 mM Na2 HPO4, 0.44 mM KH2 PO4, 0.49 mM MgCl2, 25 mM HEPES and 0.5% BSA, pH 7.4) containing o.5 ng [^125 I]rhBMP-9. Binding is allowed to equilibrate by incubation for 16 h at 4° C. […]
To verify that this specific binding is of high affinity, a more complete displacement profile is determined with lung and kidney plasma membranes.

A short description of experiment [1]: Ectopic bone formation in vivo (implant). Further details: species or system rat. The settings on record: 25 μg/implant, after 10 days of implantation. An excerpt:
A modified version of the rat bone formation assay described in Sampath and Reddi, Proc. Natl. Acad. Sci. USA 80:6591-6595 (1983) is used to evaluate bone and/or cartilage activity of the BMP proteins. This modified assay is herein called the Rosen-modified Sampath-Reddi assay. The ethanol precipitation step of the Sampath-Reddi procedure is replaced by dialyzing (if the composition is a solution) or diafiltering (if the composition is a suspension) the fraction to be assayed against water. The solution or suspension is then redissolved in 0.1% TFA, and the resulting solution added to 20mg of rat matrix. A mock rat matrix sample not treated with the protein serves as a control. This material is frozen and lyophilized and the resulting powder enclosed in #5 gelatin capsules. The capsules are implanted subcutaneously in the abdominal thoracic area of 21-49 day old male Long Evans rats. The implants are removed after 7-14 days. […]
The other half of each implant is fixed and processed for histological analysis. […] glycolmethacrylate sections are stained with Von Kossa and acid fuschin to score the amount of induced bone and cartilage formation present in each implant. […] In a modified scoring method, three non-adjacent sections are evaluated from each implant and averaged. […]

The next experiment relates to NCTC1469. Briefly: 125I-BMP-9 binding to NCTC1469 liver cell line. The settings on record: iodinated CHO-derived BMP-9. As to the method: BMP-9 responsiveness in parenchymal liver cells is tested by screening four liver cell lines for their ability to bind iodinated, CHO-derived BMP-9. […] Specific binding of BMP-9 to HepG2 cells is carried out by incubating HepG2 cells grown to confluence in Dulbecco's Modified Eagle's Medium (DME) containing 10% heat-inactivated fetal calf serum (FCS) on gelatinized 6 well plates with 2 ng/ml ^125 I-BMP-9 and increasing concentrations of unlabelled BMP-9 in binding buffer (136.9 mM NaCl, 5.37 mM KCl, 1.26 mM CaCl2, 0.64 mM MgSO4, 0.34 mM Na2 HPO4, 0.44 mM KH2 PO4, 0.49 mM MgCl2, 25 mM HEPES and 0.5% BSA, pH 7.4) for 20 hours at 4° C. to achieve binding equilibrium. This incubation follows a one hour preincubation at 37° C. in binding buffer alone. For crosslinking experiments, the cells were incubated with 500 μM disuccinimidyl suberate for 20 minutes at […] following binding. Cell extracts were analyzed on SDS-PAGE. […] The curvilinear nature of the Scatchard plot indicates negative cooperativity among BMP-9 receptors or that HepG2 cells express at least two populations of BMP-9 receptors with different affinities. Crosslinking analysis on HepG2 cells with ^125 I-BMP-9 yields two binding proteins of apparent molecular weights of 54 and 80 kD. […]

B1: BMP-9: recombinant human bone morphogenetic protein-9, mature amino acids #1-#110 of SEQ ID NO:9, expressed in CHO cells (protein)
chain: TRECSRSCPRTAPQRQVRAVTRRTRMAHVAAGSTLARRKRSAGAGSHCQKTSLRVNFEDIGWDSWIIAPKEYEAYECKGGCFFPLADDVTPTKHAIVQTLVHLKFPTKVG
modifications: 125I-iodinated as tracer; unlabelled BMP-9 used as the displacing ligand
In general, Kd refers to the free concentration of one partner at which half of the binding sites on the other are occupied at equilibrium, for simple one-to-one binding. Read a high Kd as weaker binding. For the molecule B1, in the experiment on kidney plasma membranes (adult rat kidney plasma membranes, displaceable by 100-fold excess of unlabeled rhBMP-9), the “specific [125I]rhBMP-9 binding” value is reported as “evident”. On kidney plasma membranes (rat kidney plasma membranes), this molecule came in with a Kd of 0.3 nM. Further, the ectopic bone formation entry in experiment [1] is “inducing cartilage and bone tissue”. The “specific binding of 125I-BMP-9” value in the experiment on NCTC1469 was “highest degree of binding”.

For the origin of these results see patent US6034062A, “Bone morphogenetic protein (BMP)-9 compositions and their uses” (Genetics Institute, Inc., priority 1997, dated 2000).
